In the supplement of paper PMC9233669:
Variants at the floor of the assay were thinned out.

Assays:
biotinyl-Met-oxazolone = assay: self-aminoacylation, catalytic enhancement (BMO) (fold over background); higher = more active; k-Seq, kA / k0A0; sequences stand for … in GGGAAUGGAUCCACAUCUACGAAUUC…UUCACUGCAGACUUGACGAAGCUG
Method in brief: (§1)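 Mutagenized RNA pools with a 21-nt variable region (0.43 μM) reacted with each biotinyl-aminoacyl-oxazolone at 2–1250 μM. Reactions ran in 50 μL HEPES/NaCl/KCl/MgCl2/CaCl2 buffer with 5% acetonitrile, pH 6.9–7.0, for 90 minutes at room temperature. Streptavidin-captured RNA was quantified by triplicate qPCR and Illumina sequencing, and per-sequence fraction reacted was fit to a pseudo-first-order model with 1000 bootstraps. Catalytic enhancement is median kA divided by the uncatalyzed rate, the low-activity peak of a bimodal Gaussian fit.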

biotinyl-Val-oxazolone = assay: self-aminoacylation, catalytic enhancement (BVO) (fold over background); higher = more active; k-Seq, kA / k0A0; sequences stand for … in GGGAAUGGAUCCACAUCUACGAAUUC…UUCACUGCAGACUUGACGAAGCUG
Method in brief: as §1

biotinyl-Phe-oxazolone = assay: self-aminoacylation, catalytic enhancement (BFO) (fold over background); higher = more active; k-Seq, kA / k0A0; sequences stand for … in GGGAAUGGAUCCACAUCUACGAAUUC…UUCACUGCAGACUUGACGAAGCUG
Method in brief: as §1

biotinyl-Trp-oxazolone = assay: self-aminoacylation, catalytic enhancement (BWO) (fold over background); higher = more active; k-Seq, kA / k0A0; sequences stand for … in GGGAAUGGAUCCACAUCUACGAAUUC…UUCACUGCAGACUUGACGAAGCUG
Method in brief: as §1

biotinyl-Ile-oxazolone = assay: self-aminoacylation, catalytic enhancement (BIO) (fold over background); higher = more active; k-Seq, kA / k0A0; sequences stand for … in GGGAAUGGAUCCACAUCUACGAAUUC…UUCACUGCAGACUUGACGAAGCUG
Method in brief: as §1

biotinyl-Leu-oxazolone = assay: self-aminoacylation, catalytic enhancement (BLO) (fold over background); higher = more active; k-Seq, kA / k0A0; sequences stand for … in GGGAAUGGAUCCACAUCUACGAAUUC…UUCACUGCAGACUUGACGAAGCUG
Method in brief: as §1

Work on “AUUCACCUAGGUCAAUGGGUG [Fam2.2 aminoacylation ribozyme variant]” yielded a self-aminoacylation (biotinyl-Met-oxazolone) of 1.75, a self-aminoacylation (biotinyl-Val-oxazolone) of 1.38 and a self-aminoacylation (biotinyl-Phe-oxazolone) of 6.93. The self-aminoacylation (biotinyl-Trp-oxazolone) was 1.65, the self-aminoacylation (biotinyl-Ile-oxazolone) was 1.42 and the self-aminoacylation (biotinyl-Leu-oxazolone) was 2.23.

“AUUCACCUAGGUCACCGCGUG [Fam2.2 aminoacylation ribozyme variant]” gave a self-aminoacylation (biotinyl-Met-oxazolone) of 12.6, a self-aminoacylation (biotinyl-Val-oxazolone) of 6.86 and a self-aminoacylation (biotinyl-Phe-oxazolone) of 85.2. The self-aminoacylation (biotinyl-Trp-oxazolone) was 10.9, the self-aminoacylation (biotinyl-Ile-oxazolone) was 7.2 and the self-aminoacylation (biotinyl-Leu-oxazolone) was 18.1.

Work on “AUUCACCUAGGUCACCGGGGG [Fam2.2 aminoacylation ribozyme variant]” yielded a self-aminoacylation (biotinyl-Met-oxazolone) of 3.37, a self-aminoacylation (biotinyl-Val-oxazolone) of 3.51 and a self-aminoacylation (biotinyl-Phe-oxazolone) of 21.4. The self-aminoacylation (biotinyl-Trp-oxazolone) was 4.38, the self-aminoacylation (biotinyl-Ile-oxazolone) was 3.62 and the self-aminoacylation (biotinyl-Leu-oxazolone) was 3.12.

For “AUUCACCUAGGUCACCGUGUG [Fam2.2 aminoacylation ribozyme variant]”, the self-aminoacylation (biotinyl-Met-oxazolone) was 1.33, the self-aminoacylation (biotinyl-Val-oxazolone) was 1.33 and the self-aminoacylation (biotinyl-Phe-oxazolone) was 4.55. It also gave a self-aminoacylation (biotinyl-Trp-oxazolone) of 1.24, a self-aminoacylation (biotinyl-Ile-oxazolone) of 1.13 and a self-aminoacylation (biotinyl-Leu-oxazolone) of 1.48.

“AUUCACCUAGGUCAGCCGGUG [Fam2.2 aminoacylation ribozyme variant]” showed a self-aminoacylation (biotinyl-Met-oxazolone) of 7.35, a self-aminoacylation (biotinyl-Val-oxazolone) of 5.3 and a self-aminoacylation (biotinyl-Phe-oxazolone) of 61.6. It also gave a self-aminoacylation (biotinyl-Trp-oxazolone) of 6.47, a self-aminoacylation (biotinyl-Ile-oxazolone) of 5.17 and a self-aminoacylation (biotinyl-Leu-oxazolone) of 11.3.

“AUUCACCUAGGUCAGCGAGUG [Fam2.2 aminoacylation ribozyme variant]” showed a self-aminoacylation (biotinyl-Met-oxazolone) of 4.93, a self-aminoacylation (biotinyl-Val-oxazolone) of 3.34 and a self-aminoacylation (biotinyl-Phe-oxazolone) of 25.3. The self-aminoacylation (biotinyl-Trp-oxazolone) was 5.84, the self-aminoacylation (biotinyl-Ile-oxazolone) was 3.44 and the self-aminoacylation (biotinyl-Leu-oxazolone) was 6.37.

For “AUUCACCUAGGUCAUCAGCUG [Fam2.2 aminoacylation ribozyme variant]”, the self-aminoacylation (biotinyl-Met-oxazolone) was 0.806, the self-aminoacylation (biotinyl-Val-oxazolone) was 0.757 and the self-aminoacylation (biotinyl-Phe-oxazolone) was 0.631. The self-aminoacylation (biotinyl-Trp-oxazolone) was 0.477, the self-aminoacylation (biotinyl-Ile-oxazolone) was 0.757 and the self-aminoacylation (biotinyl-Leu-oxazolone) was 0.804.

“AUUCACCUAGGUCAUCAGGCG [Fam2.2 aminoacylation ribozyme variant]” was tested, and the self-aminoacylation (biotinyl-Met-oxazolone) was 1.47, the self-aminoacylation (biotinyl-Val-oxazolone) was 1.32 and the self-aminoacylation (biotinyl-Phe-oxazolone) was 1.02. For the same sequence, the self-aminoacylation (biotinyl-Trp-oxazolone) was 1.87, the self-aminoacylation (biotinyl-Ile-oxazolone) was 1.26 and the self-aminoacylation (biotinyl-Leu-oxazolone) was 1.54.

“AUUCACCUAGGUCAUCAGUUG [Fam2.2 aminoacylation ribozyme variant]” was tested, and the self-aminoacylation (biotinyl-Met-oxazolone) was 0.88, the self-aminoacylation (biotinyl-Val-oxazolone) was 0.939 and the self-aminoacylation (biotinyl-Phe-oxazolone) was 0.935. For the same sequence, the self-aminoacylation (biotinyl-Trp-oxazolone) was 0.698, the self-aminoacylation (biotinyl-Ile-oxazolone) was 0.954 and the self-aminoacylation (biotinyl-Leu-oxazolone) was 0.942.

For “AUUCACCUAGGUCAUCCGGCG [Fam2.2 aminoacylation ribozyme variant]”, the self-aminoacylation (biotinyl-Met-oxazolone) was 3.55, the self-aminoacylation (biotinyl-Val-oxazolone) was 4.01 and the self-aminoacylation (biotinyl-Phe-oxazolone) was 15.3. The self-aminoacylation (biotinyl-Trp-oxazolone) was 4.29, the self-aminoacylation (biotinyl-Ile-oxazolone) was 3.31 and the self-aminoacylation (biotinyl-Leu-oxazolone) was 3.69.

“AUUCACCUAGGUCAUCCGGUG [Fam2.2 aminoacylation ribozyme variant]” showed a self-aminoacylation (biotinyl-Met-oxazolone) of 6.35, a self-aminoacylation (biotinyl-Val-oxazolone) of 4.69 and a self-aminoacylation (biotinyl-Phe-oxazolone) of 44.9. It also gave a self-aminoacylation (biotinyl-Trp-oxazolone) of 6.3, a self-aminoacylation (biotinyl-Ile-oxazolone) of 4.67 and a self-aminoacylation (biotinyl-Leu-oxazolone) of 8.38.

Sequence “AUUCACCUAGGUCAUCGAGGG [Fam2.2 aminoacylation ribozyme variant]” has a self-aminoacylation (biotinyl-Met-oxazolone) of 2.19, a self-aminoacylation (biotinyl-Val-oxazolone) of 1.43 and a self-aminoacylation (biotinyl-Phe-oxazolone) of 3.09. The self-aminoacylation (biotinyl-Trp-oxazolone) was 1.1, the self-aminoacylation (biotinyl-Ile-oxazolone) was 1.58 and the self-aminoacylation (biotinyl-Leu-oxazolone) was 2.89.

In the case of “AUUCACCUAGGUCAUCGCGUG [Fam2.2 aminoacylation ribozyme variant]”, the self-aminoacylation (biotinyl-Met-oxazolone) is reported as 13, the self-aminoacylation (biotinyl-Val-oxazolone) is reported as 7.35 and the self-aminoacylation (biotinyl-Phe-oxazolone) is reported as 100. It also gave a self-aminoacylation (biotinyl-Trp-oxazolone) of 11.5, a self-aminoacylation (biotinyl-Ile-oxazolone) of 7.1 and a self-aminoacylation (biotinyl-Leu-oxazolone) of 17.4.

In the case of “AUUCACCUAGGUCAUCGGCCG [Fam2.2 aminoacylation ribozyme variant]”, the self-aminoacylation (biotinyl-Met-oxazolone) is reported as 4.04, the self-aminoacylation (biotinyl-Val-oxazolone) is reported as 3.45 and the self-aminoacylation (biotinyl-Phe-oxazolone) is reported as 16.6. The self-aminoacylation (biotinyl-Trp-oxazolone) was 5.29, the self-aminoacylation (biotinyl-Ile-oxazolone) was 3.35 and the self-aminoacylation (biotinyl-Leu-oxazolone) was 4.25.

“AUUCACCUAGGUCAUCGGCUA [Fam2.2 aminoacylation ribozyme variant]” showed a self-aminoacylation (biotinyl-Met-oxazolone) of 2.57, a self-aminoacylation (biotinyl-Val-oxazolone) of 2.62 and a self-aminoacylation (biotinyl-Phe-oxazolone) of 11.2. The self-aminoacylation (biotinyl-Trp-oxazolone) was 2.62, the self-aminoacylation (biotinyl-Ile-oxazolone) was 2.67 and the self-aminoacylation (biotinyl-Leu-oxazolone) was 2.98.

With “AUUCACCUAGGUCAUCGGCUC [Fam2.2 aminoacylation ribozyme variant]” the self-aminoacylation (biotinyl-Met-oxazolone) was 2.14, the self-aminoacylation (biotinyl-Val-oxazolone) was 2.22 and the self-aminoacylation (biotinyl-Phe-oxazolone) was 5.2. It also gave a self-aminoacylation (biotinyl-Trp-oxazolone) of 2.47, a self-aminoacylation (biotinyl-Ile-oxazolone) of 2.5 and a self-aminoacylation (biotinyl-Leu-oxazolone) of 2.45.

With “AUUCACCUAGGUCAUCGGGAA [Fam2.2 aminoacylation ribozyme variant]” the self-aminoacylation (biotinyl-Met-oxazolone) was 5.51, the self-aminoacylation (biotinyl-Val-oxazolone) was 4.14 and the self-aminoacylation (biotinyl-Phe-oxazolone) was 26. For the same sequence, the self-aminoacylation (biotinyl-Trp-oxazolone) was 6.07, the self-aminoacylation (biotinyl-Ile-oxazolone) was 4.54 and the self-aminoacylation (biotinyl-Leu-oxazolone) was 9.17.

In the case of “AUUCACCUAGGUCAUCGUAUG [Fam2.2 aminoacylation ribozyme variant]”, the self-aminoacylation (biotinyl-Met-oxazolone) is reported as 0.503, the self-aminoacylation (biotinyl-Val-oxazolone) is reported as 0.737 and the self-aminoacylation (biotinyl-Phe-oxazolone) is reported as 0.528. For the same sequence, the self-aminoacylation (biotinyl-Trp-oxazolone) was 0.207, the self-aminoacylation (biotinyl-Ile-oxazolone) was 0.593 and the self-aminoacylation (biotinyl-Leu-oxazolone) was 0.553.

“AUUCACCUAGGUCAUCGUGUG [Fam2.2 aminoacylation ribozyme variant]” showed a self-aminoacylation (biotinyl-Met-oxazolone) of 0.951, a self-aminoacylation (biotinyl-Val-oxazolone) of 0.932 and a self-aminoacylation (biotinyl-Phe-oxazolone) of 2.56. For the same sequence, the self-aminoacylation (biotinyl-Trp-oxazolone) was 0.654, the self-aminoacylation (biotinyl-Ile-oxazolone) was 0.867 and the self-aminoacylation (biotinyl-Leu-oxazolone) was 1.07.

Sequence “AUUCACCUAGGUCAUCUGCUG [Fam2.2 aminoacylation ribozyme variant]” has a self-aminoacylation (biotinyl-Met-oxazolone) of 0.724, a self-aminoacylation (biotinyl-Val-oxazolone) of 0.81 and a self-aminoacylation (biotinyl-Phe-oxazolone) of 2.81. It also gave a self-aminoacylation (biotinyl-Trp-oxazolone) of 0.391, a self-aminoacylation (biotinyl-Ile-oxazolone) of 0.819 and a self-aminoacylation (biotinyl-Leu-oxazolone) of 0.964.

In the case of “AUUCACCUAGGUCAUCUGUUG [Fam2.2 aminoacylation ribozyme variant]”, the self-aminoacylation (biotinyl-Met-oxazolone) is reported as 0.564, the self-aminoacylation (biotinyl-Val-oxazolone) is reported as 0.693 and the self-aminoacylation (biotinyl-Phe-oxazolone) is reported as 0.429. It also gave a self-aminoacylation (biotinyl-Trp-oxazolone) of 0.373, a self-aminoacylation (biotinyl-Ile-oxazolone) of 0.795 and a self-aminoacylation (biotinyl-Leu-oxazolone) of 0.618.

“AUUCACCUAGGUCAUGGGGUA [Fam2.2 aminoacylation ribozyme variant]” showed a self-aminoacylation (biotinyl-Met-oxazolone) of 2.13, a self-aminoacylation (biotinyl-Val-oxazolone) of 1.83 and a self-aminoacylation (biotinyl-Phe-oxazolone) of 1. It also gave a self-aminoacylation (biotinyl-Trp-oxazolone) of 1.56, a self-aminoacylation (biotinyl-Ile-oxazolone) of 1.96 and a self-aminoacylation (biotinyl-Leu-oxazolone) of 1.88.

“AUUCACCUAGGUCAUUGGGCG [Fam2.2 aminoacylation ribozyme variant]” was tested, and the self-aminoacylation (biotinyl-Met-oxazolone) was 2.49, the self-aminoacylation (biotinyl-Val-oxazolone) was 2.66 and the self-aminoacylation (biotinyl-Phe-oxazolone) was 10.6. It also gave a self-aminoacylation (biotinyl-Trp-oxazolone) of 3.16, a self-aminoacylation (biotinyl-Ile-oxazolone) of 2.58 and a self-aminoacylation (biotinyl-Leu-oxazolone) of 3.36.
